B1: BLV1H12-GLP-1 fusion antibody (antibody, human IgG1)
heavy: not shown
light: QAVLNQPSSVSGSLGQRVSITCSGSSSNVGNGYVSWYQLIPGSAPRTLIYGDTSRASGVPDRFSGSRSGNTATLTISSLQAEDEADYFCASAEDSSSNAVFGSGTTLTVLGQPKSPPSVTLFPPSTEELNGNKATLVCLISDFYPGSVTVVWKADGSTITRNVETTRASKQSNSKYAASSYLSLTSSDWKSKGSYSCEVTHEGSTVTKTVKPSECS
B2: BLV1H12-Ex-4 fusion antibody (antibody, human IgG1)
heavy: not shown
light: QAVLNQPSSVSGSLGQRVSITCSGSSSNVGNGYVSWYQLIPGSAPRTLIYGDTSRASGVPDRFSGSRSGNTATLTISSLQAEDEADYFCASAEDSSSNAVFGSGTTLTVLGQPKSPPSVTLFPPSTEELNGNKATLVCLISDFYPGSVTVVWKADGSTITRNVETTRASKQSNSKYAASSYLSLTSSDWKSKGSYSCEVTHEGSTVTKTVKPSECS
B3: BLV1H12-GLP-1 clip fusion antibody (antibody)
heavy: not shown
light: QAVLNQPSSVSGSLGQRVSITCSGSSSNVGNGYVSWYQLIPGSAPRTLIYGDTSRASGVPDRFSGSRSGNTATLTISSLQAEDEADYFCASAEDSSSNAVFGSGTTLTVLGQPKSPPSVTLFPPSTEELNGNKATLVCLISDFYPGSVTVVWKADGSTITRNVETTRASKQSNSKYAASSYLSLTSSDWKSKGSYSCEVTHEGSTVTKTVKPSECS
modifications: cleaved by Factor Xa at the IEGR site in front of GLP-1, releasing the N-terminus of GLP-1

For this test, the target named is GLP-1 receptor on HEK293 cells carrying a cAMP responsive luciferase reporter gene (UniProt P43220 24-463, limits assumed). Put plainly: cell-based or functional assay.
In the case of B1, the “RLU (cAMP responsive luciferase reporter) at 1.26953 nM” value (“RLU … at 1.26953 nM” below) is 18600 RLU, the “RLU (cAMP responsive luciferase reporter) at 2.53906 nM” value (shortened to “RLU … at 2.53906 nM”) came out at 24500 RLU, the “RLU (cAMP responsive luciferase reporter) at 5.07813 nM” value (“RLU … at 5.07813 nM” for short) is 43200 RLU and the “RLU (cAMP responsive luciferase reporter) at 10.15625 nM” value (“RLU … at 10.15625 nM” below) worked out at 66600 RLU. Besides, the “RLU (cAMP responsive luciferase reporter) at 20.3125 nM” value (“RLU … at 20.3125 nM” below) was found to be 105000 RLU, the “RLU (cAMP responsive luciferase reporter) at 40.625 nM” value (shortened to “RLU … at 40.625 nM”) is 144000 RLU, the “RLU (cAMP responsive luciferase reporter) at 81.25 nM” value (“RLU … at 81.25 nM” below) was 151000 RLU and the “RLU (cAMP responsive luciferase reporter) at 162.5 nM” value (“RLU … at 162.5 nM” for short) is 167000 RLU. Moreover, the “RLU (cAMP responsive luciferase reporter) at 325 nM” value (from here on “RLU … at 325 nM”) is 171000 RLU, the “RLU (cAMP responsive luciferase reporter) at 650 nM” value (“RLU … at 650 nM” below) was 160000 RLU and the “RLU (cAMP responsive luciferase reporter) at 1300 nM” value (shortened to “RLU … at 1300 nM”) is 185000 RLU.

With B2, the “RLU … at 1.26953 nM” value stood at 6120 RLU, the “RLU … at 2.53906 nM” value was found to be 6360 RLU, the “RLU … at 5.07813 nM” value was 8500 RLU and the “RLU … at 10.15625 nM” value turned out to be 10400 RLU. The “RLU … at 20.3125 nM” value was 19300 RLU, the “RLU … at 40.625 nM” value amounted to 28000 RLU, the “RLU … at 81.25 nM” value is 54800 RLU and the “RLU … at 162.5 nM” value came out at 90700 RLU. Further, the “RLU … at 325 nM” value stood at 118000 RLU, the “RLU … at 650 nM” value turned out to be 135000 RLU and the “RLU … at 1300 nM” value was 160000 RLU.

Consider B3, for which the “RLU … at 1.26953 nM” value turned out to be 4740 RLU, the “RLU … at 2.53906 nM” value was determined as 5800 RLU, the “RLU … at 5.07813 nM” value worked out at 4400 RLU and the “RLU … at 10.15625 nM” value was determined as 5200 RLU. The “RLU … at 20.3125 nM” value worked out at 7780 RLU, the “RLU … at 40.625 nM” value is 13600 RLU, the “RLU … at 81.25 nM” value was found to be 33800 RLU and the “RLU … at 162.5 nM” value is 65800 RLU. In addition, the “RLU … at 325 nM” value was found to be 101000 RLU, the “RLU … at 650 nM” value is 141000 RLU and the “RLU … at 1300 nM” value was found to be 169000 RLU.

(Values after patent publication US20140050720A1 (Scripps Research, published 2014).)
